{"source": "paper PMC4164303", "about": "(Science (New York, N.Y.), 2014)", "proteins": {"B1": {"name": "EC1–2 of mouse E-cadherin (domain or fragment)", "chain": "DWVIPPISCPENEKGEFPKNLVQIKSNRDKETKVFYSITGQGADKPPVGVFIIERETGWLKVTQPLDREAIAKYILYSHAVSSNGEAVEDPMEIVITVTDQNDNRPEFTQEVFEGSVAEGAVPGTSVMKVSATDADDDVNTYNAAIAYTIVSQDPELPHKNMFTVNRDTGVISVLTSGLDRESYPTYTLVVQAADLQGEGLSTTAKAVITVKD"}}, "biological_target": "the molecule itself", "assay": "AUC", "data": [{"protein": "B1", "values": [{"measurement": "Kd", "result": "~175", "unit": "µM"}]}]}
